Assay results as given in PMC6780499, “Characterization, Recombinant Production and Structure-Function Analysis of NvCI, A Picomolar Metallocarboxypeptidase Inhibitor from the Marine Snail Nerita versicolor” (Marine Drugs, 2019).
Read-outs that look alike come from different tables or passages of the source. No end group written: not given here.

Columns and labels:
bCPA1 = biological target: T1, bCPA1 (Bos taurus, UniProt P00730); test: Ki determination, tight-binding inhibition of metallocarboxypeptidase; format: biochemical, bovine
T1 sequence (P00730 111-419): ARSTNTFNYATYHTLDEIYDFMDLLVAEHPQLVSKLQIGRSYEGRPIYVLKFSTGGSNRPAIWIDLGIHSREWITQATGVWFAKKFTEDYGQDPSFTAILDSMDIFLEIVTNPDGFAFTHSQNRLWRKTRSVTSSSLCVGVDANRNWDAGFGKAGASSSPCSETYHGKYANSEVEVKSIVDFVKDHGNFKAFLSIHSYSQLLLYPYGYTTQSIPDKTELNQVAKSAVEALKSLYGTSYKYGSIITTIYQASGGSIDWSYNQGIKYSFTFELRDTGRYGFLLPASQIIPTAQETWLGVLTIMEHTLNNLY
Method: Inhibitory activities against CPA- and CPB-type forms (bovine and human variants of CPA1, CPA2, CPA4, CPB1, and TAFI) were assayed for all extracts, subject to the experimental conditions that enzyme (E), substrate (S) and inhibitor (I) concentrations as well as the [I]/[E] ratio and preincubation time followed the requirements for tight-binding inhibitor assays. Similar approaches were followed to measure the activities of proteases of different catalytic types, like pepsin, papain, trypsin and subtilisin [45, 46, 47, 48]. All assays were performed in triplicate at 25 °C in a multiplexed manner. For 96-well assays an iEMS spectrophotometer reader/dispenser FM (Labsystems, Finland) was used with a final reaction volume of 250 μL. For cuvette assays, a Cary 400 Bio spectrophotometer (Varian Inc., Palo Alto, CA, USA) spectrophotometer was used with a final reaction volume of 1 ml. The reactions were followed at 5 s intervals for 5 min and recorded as initial velocities. In the protease inhibition assays, mixtures of activity buffer, biological sample and enzyme were preincubated at 25 °C for 10min, before substrate addition. The assay conditions were as follows: for CPA-like enzymes, 7.0nM CPA, 0.1mM AAFP substrate in 20mM Tris-HCl pH 7.5, 500mMNaCl, 1% v/v dimethyl sulfoxide (DMSO), 0.05% w/v BRIJ-35 was used. For CPB-like enzymes, CPB 3.0nM CPB, 0.1mM AAFA substrate and activity buffer of 20 mM Tris-HCl pH [50].
The Ki values of natural and recombinant NvCI against bCPA1, hCPA1, hCPA2, rat CPA3, hCPA4, hCPB1, bTAFI, hTAFI, hCPD and hCPZ were determined by measuring the enzymatic residual activity (Vi/V0 = a) at different inhibitor concentrations and using a fixed enzyme and substrate concentrations as described above, where vi and v0 are the fraction of enzymatic activity in the presence and absence of inhibitor, respectively, in terms of initial velocities. The determination of Ki values was carried out on equilibrium conditions ([E0]/Ki ≤ 10), using a previously determined preincubation time of 15 min, required to establish enzyme-inhibitor equilibrium. Working temperature was 37 °C. The best estimates of Ki values were obtained by fitting the experimental data to the equation for tight-binding inhibitors by non-linear regression using the GraphPad Prisma 5 software (GraphPad Software, Inc., San Diego, CA, USA) at p < 0.05. The real Ki values against each of these A/B-type MCPs were calculated according to the equation described by Morrison and Copeland [19, 20].

bTAFI = biological target: T2, bTAFI (Bos taurus, UniProt Q2KIG3); test: as above; format: biochemical, bovine; details: tight-binding equation fit; substrate AAFA 0.1mM; enzyme-inhibitor mixture not preincubated; 37 °C; means (n = 3) ± SD
T2 sequence (Q2KIG3 115-423): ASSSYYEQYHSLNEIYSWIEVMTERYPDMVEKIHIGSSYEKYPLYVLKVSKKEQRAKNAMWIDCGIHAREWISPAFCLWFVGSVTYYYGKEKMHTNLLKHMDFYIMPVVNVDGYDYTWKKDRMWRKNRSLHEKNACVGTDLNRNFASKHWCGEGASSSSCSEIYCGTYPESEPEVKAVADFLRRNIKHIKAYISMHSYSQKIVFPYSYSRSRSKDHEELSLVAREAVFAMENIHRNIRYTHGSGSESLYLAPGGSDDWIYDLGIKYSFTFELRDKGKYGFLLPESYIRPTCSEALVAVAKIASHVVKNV
Method: Inhibitory activities against CPA- and CPB-type forms (bovine and human variants of CPA1, CPA2, CPA4, CPB1, and TAFI) were assayed for all extracts, subject to the experimental conditions that enzyme (E), substrate (S) and inhibitor (I) concentrations as well as the [I]/[E] ratio and preincubation time followed the requirements for tight-binding inhibitor assays. Similar approaches were followed to measure the activities of proteases of different catalytic types, like pepsin, papain, trypsin and subtilisin [45, 46, 47, 48]. All assays were performed in triplicate at 25 °C in a multiplexed manner. For 96-well assays an iEMS spectrophotometer reader/dispenser FM (Labsystems, Finland) was used with a final reaction volume of 250 μL. […] The reactions were followed at 5 s intervals for 5 min and recorded as initial velocities. […]
The Ki values of natural and recombinant NvCI against bCPA1, hCPA1, hCPA2, rat CPA3, hCPA4, hCPB1, bTAFI, hTAFI, hCPD and hCPZ were determined by measuring the enzymatic residual activity (Vi/V0 = a) at different inhibitor concentrations and using a fixed enzyme and substrate concentrations as described above, where vi and v0 are the fraction of enzymatic activity in the presence and absence of inhibitor, respectively, in terms of initial velocities. […]

NvCI: 53-residue, three-disulphide proteinaceous metallocarboxypeptidase inhibitor from the marine snail Nerita versicolor; major isoform; UniProt P86912 (FHVPDDRPCINPGRCPLVPDATCTFVCKAADNDFGYECQHVWTFEGQRVGCYA; disulfide (positions not given here); also: three disulphides, pairing not given here; UniProt P86912 1-53, looked up)
Ki (bCPA1; natural isoforms, apparent Ki, without correction by competing assays, read-out: derived Ki towards bCPA (apparent Ki values)): 27 ± 2 pM | Ki (bCPA1; tight-binding equation fit, equilibrium conditions, substrate AAFP 0.1mM, 20mM Tris-HCl pH 7.5, 500mM NaCl, preincubation 15 min, 37 °C, means (n = 3) ± SD, read-out: Ki): 9.6 ± 1.4 pM | Ki (bTAFI): 121 ± 20.1 pM
